According to PMC6479007, “Phycobilisomes Harbor FNRL in Cyanobacteria” (mBio, 2019):

B1: CpcA (phycocyanin alpha subunit) (natural protein)
chain: not shown
notes: phycocyanin alpha subunit CpcA, Synechocystis sp; PCC 6803; cross-linked through its N-terminal M1; In the assay it stood inside the assembled phycobilisome; also called PC alpha subunit; source: endogenous, Synechocystis 6803 cells; in isolated phycobilisomes
B2: ferredoxin-NADP+ oxidoreductase, large isoform (FNRL) (enzyme, UniProt Q55318 1-413, looked up)
chain: MYSPGYVATSSRQSDAGNRLFVYEVIGLSQSTMTDGLDYPIRRSGSTFITVPLKRMNQEMRRITRMGGKIVSIKPLEGDSPLPHTEGIAKPSQSEGSGSEAVANPAPESNKTMTTTPKEKKADDIPVNIYRPKTPYIGKVLENYPLVREGAIGTVQHLTFDLSAGDLRYLEGQSIGIIPPGEDDKGKPHKLRLYSIASTRHGDFGDDKTVSLCVRQLEYQNEAGETVQGVCSTYLCNIKEGDDIAITGPVGKEMLLPPDEDANIVMLATGTGIAPFRAFLWRMFKEQHEDYKFKGLAWLIFGIPKSENILYKDDLEKMAAEFPDNFRLTYAISREQQNAEGGRMYIQHRVAENAEELWNLMQNPKTHTYMCGLKGMEPGIDEAFTALAEQNGKEWTTFQREMKKEHRWHVETY
modifications: acetylation on the N terminus in a part of the molecules (6% in CpcG-PBS, 12% in CpcL-PBS)
notes: ferredoxin-NADP+ oxidoreductase, large isoform FNRL, Synechocystis sp; PCC 6803, slr1643; The small FNR isoform of the same gene is not meant; also called large FNR; Fd-NADP+ oxidoreductase; source: endogenous, Synechocystis 6803 wild-type and ΔAB cells; isolated with the phycobilisomes on a sucrose gradient
B3: CpcB (phycocyanin beta subunit) (natural protein, UniProt Q54714 1-172, looked up)
chain: MFDVFTRVVSQADARGEYLSGSQLDALSATVAEGNKRIDSVNRITGNASAIVSNAARALFAEQPQLIQPGGNAYTSRRMAACLRDMEIILRYVTYATFTGDASVLEDRCLNGLRETYVALGVPGASVAAGVQKMKEAALDIVNDPNGITRGDCSAIVAEIAGYFDRAAAAVA
notes: phycocyanin beta subunit CpcB, Synechocystis sp; PCC 6803; N-terminal peptide 1MFDVFTR found cross-linked through the primary amine of M1; In the assay it stood inside the assembled phycobilisome; also called PC beta subunit; source: endogenous, Synechocystis 6803 wild-type and ΔAB cells; in isolated CpcG-PBS and CpcL-PBS

Experiments:
[1] = biological target: B2; experiment: cross-linking; isolated CpcG-PBS and CpcL-PBS (partners co-purified in the native complex), 0.1 uM in 0.2 M K-phosphate, 1:1 BS3-H12/D12, 10 min in the dark at room temperature, cross-linker/PBS 10:1, 50:1 and 100:1; LysC and trypsin digestion, LC-MS/MS, ICC-CLASS and pLink; settings: both partners purified
[2] = biological target: T1, CpcL-PBS (CpcL-type phycobilisome, without allophycocyanin) (Synechocystis sp. strain PCC 6803 …, UniProt Q54715 1-162; Q54714 1-172; P73203 1-291; P73204 1-273; P73202 1-83; P74625 …); experiment: co-sedimentation; step-gradient sucrose density ultracentrifugation (370,000 x g overnight) of broken cells in 0.8 M K-phosphate pH 7.5 after 2% Triton X-100; blue bands analysed by SDS-PAGE (CBB R-250) and by trypsin digestion with LC-MS/MS label-free quantification (PEAKS; Protein Metrics); settings: partners not purified
T1 construct: phycocyanin alpha subunit CpcA, Synechocystis sp; PCC 6803; phycocyanin beta subunit CpcB, Synechocystis sp; rod linker protein CpcC1, Synechocystis sp; rod linker protein CpcC2, Synechocystis sp; rod-capping linker CpcD, Synechocystis sp; PCC 6803, ssl3093; CpcL (formerly CpcG2), Synechocystis sp; PCC 6803, sll1471; the first methionine is removed posttranslationally, threonine is the first …

binding result [1]	fold higher FNRL content than in CpcG-PBS, normalised to CpcC1 [2] [fold]	ratio of FNRL content, CpcL-PBS to CpcG-PBS (manual quantification, Protein Metrics) [2]	ratio of FNRL content, CpcL-PBS/CpcG-PBS (PEAKS label-free quantification) [2]	Binder
binds				B1
	2.4	1.9	1.99	B2
binds				B3
